Paper PMC4151990, “Tetrameric c-di-GMP Mediates Effective Transcription Factor Dimerization to Control Streptomyces Development” (Cell, 2014)

Tests used:
BldD = molecular target: T1, BldD (Streptomyces venezuelae, UniProt F2RCL8); test: fluorescence polarization; format: binding
T1 construct: gene SVEN_1089; CTD (residues 80-166), purified from Sf9 cells
T1 sequence (F2RCL8 80-166): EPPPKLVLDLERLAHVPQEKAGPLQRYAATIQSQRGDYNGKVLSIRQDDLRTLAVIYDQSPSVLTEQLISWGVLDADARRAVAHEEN

[1] = system: T2, His6-BldD full length (Streptomyces venezuelae), ORF:0f1775d8; test: EMSA; conditions: EMSA: 10 mM Tris pH 7.5, 1 mM EDTA, 5% glycerol, 10 mM NaCl, 1 mM MgCl2, 0.5 ug poly[d(I-C)] in 20 ul, 20 min room temperature; 5% PAGE in 0.5x TBE
T2 sequence: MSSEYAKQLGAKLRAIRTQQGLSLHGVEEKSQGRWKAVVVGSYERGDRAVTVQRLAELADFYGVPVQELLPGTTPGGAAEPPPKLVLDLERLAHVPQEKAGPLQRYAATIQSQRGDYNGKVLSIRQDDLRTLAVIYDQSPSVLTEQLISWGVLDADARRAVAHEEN

[2] = molecular target: His6-BldD-DBD (S. venezuelae BldD DNA-binding domain, residues 1-79) (Streptomyces venezuelae); test: cross-linking; 10 μM protein, 1 mM DSS, no c-di-GMP; 100 mM NaH2PO4, 150 mM NaCl, pH 8, room temperature 30 min; SDS-PAGE, Coomassie

2′-O-(6-[Fluoresceinyl]aminohexylcarbamoyl)-cyclic diguanosine monophosphate [2′-Fluo-AHC-c-di-GMP]
Kd (BldD): 2500 ± 600 nM

CTAGCCACAGACACCGCGAAAAGGGAAGAAAACCCGCTAAATGGGGCATAGCTTTCGATGAACGACAGAAGGCTCGCGTCGCTCTCCTCTGTACGCGCCCCCTCACGTAGAGTGCCGAAGGGTGCCGTCCGACCCGTAACTCTTTCGAGTGACCGTCG (double strand) [bldM promoter fragment, 158 bp]
binding [1]: binds

GTTCGAAGATGTGGCCGACGGCGTCCACCCGGAGCGGCGCTCTCCGCCGACGTTCGCGCACCGCGACCGCGCACTCACGCTACGCTCACCAGGATTCCGTCCAGGACACCCGCACCGACACACCCGACAGCAGAACGGCTCAAGGCAACGC (double strand) [whiG promoter fragment, 151 bp]
binding [1]: binds

His6-BldD-DBD (S. venezuelae BldD DNA-binding domain, residues 1-79) (domain or fragment)
stoichiometry N [2]: 2
